Experimental data as given in paper doi:10.1101/2025.05.22.655646 (bioRxiv, 2025).

B1: G001_gp1_V10_VRC01c_2021-0087 (antibody, V domains shown)
VH: QVQLVQSGAEVKKPGASVKVSCKASGYTFTGNYIHWVRQAPGQGLEWVGWLNPNSGGTNYAQQFQGRVTMTRDTSISTAYMELNRLRSDDTAVFYCARGLWQWEFRYWGQGTLVTVSS
VL: DIVLTQSPGTLSLSPGERATLSCRASQSVSSSNLAWYQQKPGQAPRLLIYGASSRATGIPDRFSGSGSGTDFTLTISRLEPEDCAVYYCQQYEGFGGGTKVEIK
notes: also called G001-0087
B2: G001_LD_07A_VRC01c_58 (antibody, V domains shown)
VH: QVQLVQSGAEVRKPGASVKVSCKASGYTFTDYYIHWVRQAPGQGLEWMGWINPNSGGTNYAQKFQGWVTMTRDTSISTAHMELRRLRSDDRAVYYCARGVVHSGFEFGYWGQGTLVTVSS
VL: DIQMTQSPSTLSASVGDRVTITCRASQSISNWLAWYQQKPGKAPKLLIYKASSLESGVPSRFSGSGSGTEFTLTISSLQPDDFATYYCQQYETFGQGTKVEIK
notes: also called G001-58
B3: G001_LD_07A_VRC01c_59 (antibody, V domains shown)
VH: QVQLVQSGAEVKKPGTSVKVSCKASEYTFTGYYVHWVRQAPGQGLEWMGWINPNSGGTNYAQKFQGWVTMTRDTSISTAYMELSRLKSDDTAVYYCARSDYISSWYFGYWGQGTLVTVSS
VL: EIVMTQSPATLSVSPGERATLSCRASQSVSSNLAWYQQKPGQAPRLLIYGTSTRATGIPARFSGSGSGTEFTLTISSLQSEDFAVYYCQQYETFGQGTKVEIK
notes: also called G001-59
B4: G001_gp1_V10_VRC01c_179 (antibody, V domains shown)
VH: QVQLVQSGADVKKPGASVKVSCKASGYTFTDYYMHWVRQAPGQGLEWMGWINPNSGGTNYAQKFQDRVTMTRDTSVSTAYMEVSGLRSDDTAVYYCARIKLCNGGSCNWSLGYWGQGSLVTVSS
VL: DIQMTQSPSSLSASVGDRVTITCQASQDISNYLNWYQQKPGKAPKLLIYGASNLETGVPSRFSGSGSGTDFTFTISSLQPEDIATYYCQQYEFFGPGTKVDIK
notes: also called G001-179

target: T1, eOD-GT8 (Human immunodeficiency virus 1, …); assay: SPR; monoclonal IgGs and eOD-GT8; as previously described (ref. 19); conditions: both partners purified
T1 construct: also called engineered outer domain germline-targeting version 8; eOD-GT8 monomer

In order of falling Kd:
1. B3  1.76 nM
2. B2  0.437 nM
3. B1  0.15 nM
4. B4  0.13 nM
